From article PMC5433297, “Isoflavone Malonyltransferases GmIMaT1 and GmIMaT3 Differently Modify Isoflavone Glucosides in Soybean (Glycine max) under Various Stresses” (Frontiers in Plant Science, 2017)

B1: GmIMaT1 (Glycine max) (protein)
chain: MASHNIKIHDHLRVSPPSATEISLSLTFFDLFWLRFHPVERIFFYTLPTPHSNPSIFYSKLVPKLKTSLSRTLQHFPPLAGNVVWPDNTPNPTVQYTPGDSVSLVVAESEADFNHVLDNSPHKASELRCLVPHLDSSDSHASVVSFQITLFPNRGFSIGISTHHAVLDGKSSTIFIKAWASLCKTYNDDESSESSSPSLAPELKPFFDRTAIKDPSEIGLNFTVNWTEILTKFFPNENSDGRCLKLLPFPPRLEDHVRASFALTGADLEKLRKRVLSKWDIVDRGAESEPPRLSSFVLTCAYALACIAKAIHGVEKEKEKFAFAFTVDCRARLEPPIHDNYFGNCVWGHVVDAEPLDFIKEEAFAIVAKSIHSKIKMILDEGIFHGMESAFSRYESLGKDGVEIMGIAGSNRFGVYGTDFGWGKPAKVEIASVDRALTIGFAESKDGNDGVQVGLVLKKHVMDLFCTLFRQGMLDD
notes: full-length ORF (476 residues), His-tagged fusion (pDEST17), E. coli BL21 (DE3), nickel resin, partially purified; cDNA from soybean roots
B2: GmIMaT3 (Glycine max) (protein)
chain: MAETPTLRIHEVCPISPPQETPSTTIPFTFFDVLWLRLPPVERLFFYSFPNPTTTSSFFDTTILPNLKHSLSLTLHHFPPLAGTITWPLHTPLPLIAYTPGNSIPFRIAESNADFNTLSSNLSEVNNHRRNLIPHLPTSHEEASVLALQLTHFPNQGYSIGITSHHAALDGKSSTLFMKSWAHICSYLNTSPEEPLLFSLPKHLTPSFDRSVIRDPLGIGEIYAKSWTSFGGATNDRSLNVWDTLGGNQTDLVKGLFELTPLDIKKLKKLAESKFVVGDNKKKVRVTSFTVTCAYLLSCAVKAEQPNCERVHFVFNVDCRARLDPPIPETYFGNCVVALLASAKREELLGEEAFFKSVIGISEELNGLEGDVLNGADKWIPKIQSVVSETPRLFSVAGSPRFEVYGIDFGWGRPEKVDVASVNKTGAFSLSESRDHSGGIQIGLALTKNQMEAFSRVFAQGLESLES
notes: full-length ORF (467 residues), His-tagged fusion (pDEST17), E. coli BL21 (DE3), nickel resin, partially purified; cDNA from soybean roots; allele with three amino acid differences from GmMT7 and GmIF7MaT

What was measured:
Assay in all cases: HPLC malonyltransferase assay, Lineweaver-Burk
Assay type in all cases: biochemical, Glycine max
[1] = substrate: CC(C)(COP(=O)(O)OP(=O)(O)OC[C@H]1O[C@@H](n2cnc3c(N)ncnc32)[C@H](O)[C@@H]1OP(=O)(O)O)[C@@H](O)C(=O)NCCC(=O)NCCSC(=O)CC(=O)O; conditions: 60 μM genistin as acceptor, 20 mM potassium phosphate pH 7.2, 30°C
Description: (§1) HPLC malonyltransferase assay, Lineweaver-Burk on GmIMaT1

[2] = substrate: COc1cc2c(=O)c(-c3ccc(O)cc3)coc2cc1O[C@@H]1O[C@H](CO)[C@@H](O)[C@H](O)[C@H]1O; conditions: 40 μM malonyl-CoA, 20 mM potassium phosphate pH 7.2, 30°C
Description: as §1

[3] = substrate: O=c1c(-c2ccc(O)cc2)coc2cc(O[C@@H]3O[C@H](CO)[C@@H](O)[C@H](O)[C@H]3O)cc(O)c12; conditions: 40 μM malonyl-CoA, 20 mM potassium phosphate pH 7.2, 30°C
Description: as §1

[4] = substrate: O=c1c(-c2ccc(O)cc2)coc2cc(O[C@@H]3O[C@H](CO)[C@@H](O)[C@H](O)[C@H]3O)ccc12; conditions: 40 μM malonyl-CoA, 20 mM potassium phosphate pH 7.2, 30°C
Description: as §1

[5] = substrate: CC(C)(COP(=O)(O)OP(=O)(O)OC[C@H]1O[C@@H](n2cnc3c(N)ncnc32)[C@H](O)[C@@H]1OP(=O)(O)O)[C@@H](O)C(=O)NCCC(=O)NCCSC(=O)CC(=O)O; conditions: 60 μM genistin as acceptor, 20 mM potassium phosphate pH 7.2, 30°C; remark: listed apart in the source
Description: (§2) HPLC malonyltransferase assay, Lineweaver-Burk on GmIMaT3

[6] = substrate: COc1cc2c(=O)c(-c3ccc(O)cc3)coc2cc1O[C@@H]1O[C@H](CO)[C@@H](O)[C@H](O)[C@H]1O; conditions: 40 μM malonyl-CoA, 20 mM potassium phosphate pH 7.2, 30°C; remark: listed apart in the source
Description: as §2

[7] = substrate: O=c1c(-c2ccc(O)cc2)coc2cc(O[C@@H]3O[C@H](CO)[C@@H](O)[C@H](O)[C@H]3O)cc(O)c12; conditions: 40 μM malonyl-CoA, 20 mM potassium phosphate pH 7.2, 30°C; remark: listed apart in the source
Description: as §2

[8] = substrate: O=c1c(-c2ccc(O)cc2)coc2cc(O[C@@H]3O[C@H](CO)[C@@H](O)[C@H](O)[C@H]3O)ccc12; conditions: 40 μM malonyl-CoA, 20 mM potassium phosphate pH 7.2, 30°C; remark: listed apart in the source
Description: as §2

Row | Protein | Km [1] [µM] | kcat/Km [1] [M⁻¹ s⁻¹] | Km [2] [µM] | kcat/Km [2] [M⁻¹ s⁻¹] | Km [3] [µM] | kcat/Km [3] [M⁻¹ s⁻¹] | Km [4] [µM] | kcat/Km [4] [M⁻¹ s⁻¹] | Km [5] [µM] | kcat/Km [5] [M⁻¹ s⁻¹] | Km [6] [µM] | kcat/Km [6] [M⁻¹ s⁻¹] | Km [7] [µM] | kcat/Km [7] [M⁻¹ s⁻¹] | Km [8] [µM] | kcat/Km [8] [M⁻¹ s⁻¹]
1 | B1 | 18.30 ± 1.2 | 440000 ± 70000 | 13.11 ± 0.92 | 5.21e+06 ± 140000 | 23.04 ± 1.5 | 2.47e+06 ± 100000 | 36.28 ± 3.2 | 820000 ± 10000 |  |  |  |  |  |  |  | 
2 | B2 |  |  |  |  |  |  |  |  | 25.59 ± 2.2 | 750000 ± 120000 | 12.94 ± 1.3 | 5.61e+06 ± 1.25e+06 | 26.67 ± 0.86 | 1.54e+06 ± 140000 | 30.12 ± 2.6 | 1.15e+06 ± 120000
